Experimental data: paper PMC12923268, “JAZ2/JAZ4-MYC2.1 module mediates MeJA-induced alleviation of chilling injury in peach fruit (Prunus persica)”

B1: PpERF61 probe (dsDNA)
DNA 1: ACAAGTTGAGCATGTGTACCCAATTGCT
DNA 2: AGCAATTGGGTACACATGCTCAACTTGT
B2: PpHB.G7 probe (dsDNA)
DNA 1: GTGGCGTGAGAACACGTGTGGCCGTTACGC
DNA 2: GCGTAACGGCCACACGTGTTCTCACGCCAC
B3: PpPAL1 probe (dsDNA)
DNA 1: GGCAACCACATGGATGAATTGTTAT
DNA 2: ATAACAATTCATCCATGTGGTTGCC
B4: PpCHS probe (dsDNA)
DNA 1: AGAAAACCACGTGGGACAAAACCCTAGA
DNA 2: TCTAGGGTTTTGTCCCACGTGGTTTTCT
B5: PpCHI3 probe (PpCHI) (dsDNA)
DNA 1: CATCTACCCACGTGTTCAACAATTCAA
DNA 2: TTGAATTGTTGAACACGTGGGTAGATG
B6: Pp4CL probe (dsDNA)
DNA 1: GCATGGGACACACGTGTTCAAATACTTGTATGA
DNA 2: TCATACAAGTATTTGAACACGTGTGTCCCATGC
B7: PpIAA1 probe (dsDNA)
DNA 1: AGTAGTTGGCACGTGTTATAAATAATA
DNA 2: TATTATTTATAACACGTGCCAACTACT
B8: PpPG2 probe (dsDNA)
DNA 1: GACAACAATTCCACATGTCCTATGTTTATTG
DNA 2: CAATAAACATAGGACATGTGGAATTGTTGTC
B9: PpPL1 probe (dsDNA)
DNA 1: CACACACTCACATGTTGCTAAATT
DNA 2: AATTTAGCAACATGTGAGTGTGTG
B10: PpXTH2 probe (dsDNA)
DNA 1: TGAGGCGCACATGGAACAAAATTAG
DNA 2: CTAATTTTGTTCCATGTGCGCCTCA
B11: PpERF61 mut (dsDNA)
DNA 1: ACAAGTTGAGAAAAAATACCCAATTGCT
DNA 2: AGCAATTGGGTATTTTTTCTCAACTTGT
B12: PpHB.G7 mut (dsDNA)
DNA 1: GTGGCGTGAGAAAAAAAATGGCCGTTACGC
DNA 2: GCGTAACGGCCATTTTTTTTCTCACGCCAC
B13: PpIAA1 mut (dsDNA)
DNA 1: AGTAGTTGGAAAAAATTATAAATAATA
DNA 2: TATTATTTATAATTTTTTCCAACTACT

Each binder was assayed against T1, PpMYC2.1 (Prunus persica, UniProt A0A251P353 1-687) (assay: EMSA; Chemiluminescent EMSA Kit (Beyotime); buffer, salt, pH and temperature not stated). Details: protein: recombinant; tags: His, SUMO (pET-SUMO); chain copies: 2; label: 3' biotin; blunt.
T1 sequence (A0A251P353 entry or part of it): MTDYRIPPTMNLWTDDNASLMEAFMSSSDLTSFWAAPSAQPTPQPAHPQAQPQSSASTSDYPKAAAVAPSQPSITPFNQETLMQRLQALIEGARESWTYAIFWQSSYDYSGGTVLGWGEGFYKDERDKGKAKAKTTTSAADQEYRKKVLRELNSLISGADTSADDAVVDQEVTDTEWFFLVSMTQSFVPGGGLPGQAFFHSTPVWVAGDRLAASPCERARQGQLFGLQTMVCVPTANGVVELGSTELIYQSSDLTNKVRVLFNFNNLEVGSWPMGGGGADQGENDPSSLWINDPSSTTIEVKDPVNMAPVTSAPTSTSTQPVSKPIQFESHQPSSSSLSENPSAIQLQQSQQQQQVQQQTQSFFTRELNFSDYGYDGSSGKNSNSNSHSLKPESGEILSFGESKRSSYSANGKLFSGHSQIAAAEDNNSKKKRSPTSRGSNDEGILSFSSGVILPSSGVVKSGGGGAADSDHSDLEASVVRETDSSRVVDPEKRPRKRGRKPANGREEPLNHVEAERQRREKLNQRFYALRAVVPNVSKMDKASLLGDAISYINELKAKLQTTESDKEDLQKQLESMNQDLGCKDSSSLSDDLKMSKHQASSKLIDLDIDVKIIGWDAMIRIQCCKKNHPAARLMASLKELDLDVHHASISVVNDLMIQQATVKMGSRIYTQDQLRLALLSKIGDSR

| Binder | binding result |
| --- | --- |
| B1 | binds |
| B2 | binds |
| B3 | binds |
| B4 | binds |
| B5 | binds |
| B6 | binds |
| B7 | binds |
| B8 | binds |
| B9 | binds |
| B10 | binds |

Each binder was assayed against T1, PpMYC2.1 (assay: competition; mutant competitor vs N1; failed to compete effectively; Chemiluminescent EMSA Kit (Beyotime); buffer, salt, pH and temperature not stated). Details: protein: recombinant; tags: His, SUMO (pET-SUMO); chain copies: 2; blunt.

| Binder | binding result |
| --- | --- |
| B11 | no binding |

What follows are binders tested against T1, PpMYC2.1 (assay: competition; mutant competitor vs N3; failed to compete effectively; Chemiluminescent EMSA Kit (Beyotime); buffer, salt, pH and temperature not stated). Details: protein: recombinant; tags: His, SUMO (pET-SUMO); chain copies: 2; blunt.

| Binder | binding result |
| --- | --- |
| B12 | no binding |

What follows are binders tested against T1, PpMYC2.1 (assay: competition; mutant competitor vs N5; failed to compete effectively; Chemiluminescent EMSA Kit (Beyotime); buffer, salt, pH and temperature not stated). Details: protein: recombinant; tags: His, SUMO (pET-SUMO); chain copies: 2; blunt.

| Binder | binding result |
| --- | --- |
| B13 | no binding |
